Test system: CCCCC[C@H](O)/C=C/[C@H]1[C@H](O)CC(=O)[C@@H]1C/C=C\CCCC(=O)O
Experiment: cells, lysate or membranes

“prostaglandin transporter PGT (OATP2A1) (Homo sapiens; S346A)” gave a Km of 1.14 µM.

Source: article PMC12789631
